According to article PMC3443816:

Biological target: T1, Cbf5 wild type;Nop10;Gar1 (in complex) (Pyrococcus furiosus;Pyrococcus …, UniProt Q7LWY0;Q8U1R4;Q8U029 1-340;1-60;=MG+2-104, ||internal_change)
T1 sequence 1: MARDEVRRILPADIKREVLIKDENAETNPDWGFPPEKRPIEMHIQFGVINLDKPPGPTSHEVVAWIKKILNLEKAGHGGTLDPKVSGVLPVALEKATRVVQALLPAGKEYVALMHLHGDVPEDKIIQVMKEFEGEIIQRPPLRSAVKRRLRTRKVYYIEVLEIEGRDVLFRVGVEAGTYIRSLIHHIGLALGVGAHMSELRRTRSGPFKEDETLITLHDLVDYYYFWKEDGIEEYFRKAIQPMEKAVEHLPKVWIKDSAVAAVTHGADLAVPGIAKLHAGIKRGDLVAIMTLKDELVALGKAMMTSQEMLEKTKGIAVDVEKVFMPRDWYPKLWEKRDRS
T1 sequence 2: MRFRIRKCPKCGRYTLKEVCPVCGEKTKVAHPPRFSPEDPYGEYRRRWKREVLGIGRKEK
T1 sequence 3: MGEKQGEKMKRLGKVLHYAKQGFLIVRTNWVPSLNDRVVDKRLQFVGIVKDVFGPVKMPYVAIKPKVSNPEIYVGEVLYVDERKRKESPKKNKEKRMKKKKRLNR
Assay: filter binding

B1: H/ACA guide RNA Pf4 (structured_RNA)
RNA: AAUGCCCCUCCCCUCUCACACCCCCGUGAGAAGUGAGCGGGGGGCGGUCGGGGAGGGGACAUCA
  Kd: 21 ± 8 nM
